{"source": "paper PMC4720780", "about": "“Fruit Ripening Regulation of α-Mannosidase Expression by the MADS Box Transcription Factor RIPENING INHIBITOR and Ethylene”", "binders": {"B1": {"name": "alpha-Man promoter fragment MD4 (187 bp) (dsDNA)", "DNA 1": "GAAGACTTCACAAATCTTGATTTTTGAATACGACCCTTTAGTATTAAGTTTTCCAATTAATCTTGTAGGTCCATTGGCTTTGATTCCCTTTCTTGATTTATCTACAAAAATTTAGGCTATTTATAGAGATTTGGGGTTTATGGTTTAGTACATTCTCTTTCAGTGAACACTCTCAGCAATGGTGGAA", "DNA 2": "TTCCACCATTGCTGAGAGTGTTCACTGAAAGAGAATGTACTAAACCATAAACCCCAAATCTCTATAAATAGCCTAAATTTTTGTAGATAAATCAAGAAAGGGAATCAAAGCCAATGGACCTACAAGATTAATTGGAAAACTTAATACTAAAGGGTCGTATTCAAAAATCAAGATTTGTGAAGTCTTC"}}, "molecular_target": "RIN (RIPENING INHIBITOR, MADS box) (Solanum lycopersicum, UniProt Q8S4L4 1-242)", "sequence (Q8S4L4 entry or part of it)": "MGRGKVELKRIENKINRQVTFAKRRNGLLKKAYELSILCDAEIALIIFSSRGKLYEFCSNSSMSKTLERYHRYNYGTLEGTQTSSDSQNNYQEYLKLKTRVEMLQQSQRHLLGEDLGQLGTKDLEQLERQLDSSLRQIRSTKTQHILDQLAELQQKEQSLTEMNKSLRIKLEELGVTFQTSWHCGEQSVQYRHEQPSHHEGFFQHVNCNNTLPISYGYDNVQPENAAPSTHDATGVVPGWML", "assay": "EMSA; 10 mM MgCl2; 20 mM HEPES pH 7.5, 20% glycerol, 0.05 ug poly(dI-dC), 10 mM MgCl2, 2.5 mM EDTA, 2.5 mM DTT, 25 mM NaCl, 25 C, 30 min; 6% native PAGE 0.5x TBE", "conditions": "protein: recombinant; chain copies: 2; label: 32P (alpha-32P dCTP Klenow fill-in); filled-in ends", "data": [{"binder": "B1", "values": [{"measurement": "binding result", "result": "binds"}]}]}
